According to PMC11574045, “A cofactor-induced repressive type of transcription factor condensation can be induced by synthetic peptides to suppress tumorigenesis” (The EMBO Journal, 2024):

B1: MLR2 (protein, UniProt Q96JN0 1-433, looked up)
Ligand-dependent corepressor: MQRMIQQFAAEYTSKNSSTQDPSQPNSTKNQSLPKASPVTTSPTAATTQNPVLSKLLMADQDSPLDLTVRKSQSEPSEQDGVLDLSTKKSPCAGSTSLSHSPGCSSTQGNGRPGRPSQYRPDGLRSGDGVPPRSLQDGTREGFGHSTSLKVPLARSLQISEELLSRNQLSTAASLGPSGLQNHGQHLILSREASWAKPHYEFNLSRMKFRGNGALSNISDLPFLAENSAFPKMALQAKQDGKKDVSHSSPVDLKIPQVRGMDLSWESRTGDQYSYSSLVMGSQTESALSKKLRAILPKQSRKSMLDAGPDSWGSDAEQSTSGQPYPTSDQEGDPGSKQPRKKRGRYRQYNSEILEEAISVVMSGKMSVSKAQSIYGIPHSTLEYKVKERLGTLKNPPKKKMKLMRSEGPDVSVKIELDPQGEAAQSANESKNE
B2: MESP1 (protein, UniProt Q9BRJ9 1-268, looked up)
Mesoderm posterior protein 1: MAQPLCPPLSESWMLSAAWGPTRRPPPSDKDCGRSLVSSPDSWGSTPADSPVASPARPGTLRDPRAPSVGRRGARSSRLGSGQRQSASEREKLRMRTLARALHELRRFLPPSVAPAGQSLTKIETLRLAIRYIGHLSAVLGLSEESLQRRCRQRGDAGSPRGCPLCPDDCPAQMQTRTQAEGQGQGRGLGLVSAVRAGASWGSPPACPGARAAPEPRDPPALFAEAACPEGQAMEPSPPSPLLPGDVLALLETWMPLSPLEWLPEEPK
B3: MLLT10 (protein, UniProt P55197 1-1068, looked up)
Protein AF-10: MVSSDRPVSLEDEVSHSMKEMIGGCCVCSDERGWAENPLVYCDGHGCSVAVHQACYGIVQVPTGPWFCRKCESQERAARVRCELCPHKDGALKRTDNGGWAHVVCALYIPEVQFANVSTMEPIVLQSVPHDRYNKTCYICDEQGRESKAATGACMTCNKHGCRQAFHVTCAQFAGLLCEEEGNGADNVQYCGYCKYHFSKLKKSKRGSNRSYDQSLSDSSSHSQDKHHEKEKKKYKEKDKHKQKHKKQPEPSPALVPSLTVTTEKTYTSTSNNSISGSLKRLEDTTARFTNANFQEVSAHTSSGKDVSETRGSEGKGKKSSAHSSGQRGRKPGGGRNPGTTVSAASPFPQGSFSGTPGSVKSSSGSSVQSPQDFLSFTDSDLRNDSYSHSQQSSATKDVHKGESGSQEGGVNSFSTLIGLPSTSAVTSQPKSFENSPGDLGNSSLPTAGYKRAQTSGIEEETVKEKKRKGNKQSKHGPGRPKGNKNQENVSHLSVSSASPTSSVASAAGSITSSSLQKSPTLLRNGSLQSLSVGSSPVGSEISMQYRHDGACPTTTFSELLNAIHNGIYNSNDVAVSFPNVVSGSGSSTPVSSSHLPQQSSGHLQQVGALSPSAVSSAAPAVATTQANTLSGSSLSQAPSHMYGNRSNSSMAALIAQSENNQTDQDLGDNSRNLVGRGSSPRGSLSPRSPVSSLQIRYDQPGNSSLENLPPVAASIEQLLERQWSEGQQFLLEQGTPSDILGMLKSLHQLQVENRRLEEQIKNLTAKKERLQLLNAQLSVPFPTITANPSPSHQIHTFSAQTAPTTDSLNSSKSPHIGNSFLPDNSLPVLNQDLTSSGQSTSSSSALSTPPPAGQSPAQQGSGVSGVQQVNGVTVGALASGMQPVTSTIPAVSAVGGIIGALPGNQLAINGIVGALNGVMQTPVTMSQNPTPLTHTTVPPNATHPMPATLTNSASGLGLLSDQQRQILIHQQQFQQLLNSQQLTPEQHQAFLYQLMQHHHQQHHQPELQQLQIPGPTQIPINNLLAGTQAPPLHTATTNPFLTIHGDNASQKVARLSDKTGPVAQEKS
B4: MNAT1 (protein, UniProt P51948 1-309, looked up)
CDK-activating kinase …: MDDQGCPRCKTTKYRNPSLKLMVNVCGHTLCESCVDLLFVRGAGNCPECGTPLRKSNFRVQLFEDPTVDKEVEIRKKVLKIYNKREEDFPSLREYNDFLEEVEEIVFNLTNNVDLDNTKKKMEIYQKENKDVIQKNKLKLTREQEELEEALEVERQENEQRRLFIQKEEQLQQILKRKNKQAFLDELESSDLPVALLLAQHKDRSTQLEMQLEKPKPVKPVTFSTGIKMGQHISLAPIHKLEEALYEYQPLQIETYGPHVPELEMLGRLGYLNHVRAASPQDLAGGYTSSLACHRALQDAFSGLFWQPS
B5: MXD4 (protein, UniProt Q14582 1-209, looked up)
Max dimerization protein 4: MELNSLLILLEAAEYLERRDREAEHGYASVLPFDGDFAREKTKAAGLVRKAPNNRSSHNELEKHRRAKLRLYLEQLKQLVPLGPDSTRHTTLSLLKRAKVHIKKLEEQDRRALSIKEQLQQEHRFLKRRLEQLSVQSVERVRTDSTGSAVSTDDSEQEVDIEGMEFGPGELDSVGSSSDADDHYSLQSGTGGDSGFGPHCRRLGRPALS
B6: MSGN1 (protein, UniProt A6NI15 1-193, looked up)
Mesogenin-1: MDNLRETFLSLEDGLGSSDSPGLLSSWDWKDRAGPFELNQASPSQSLSPAPSLESYSSSPCPAVAGLPCEHGGASSGGSEGCSVGGASGLVEVDYNMLAFQPTHLQGGGGPKAQKGTKVRMSVQRRRKASEREKLRMRTLADALHTLRNYLPPVYSQRGQPLTKIQTLKYTIKYIGELTDLLNRGREPRAQSA
B7: MLXIP (protein, UniProt Q9HAP2 2-919, looked up)
MLX-interacting protein: AADVFMCSPRRPRSRGRQVLLKPQVSEDDDDSDTDEPSPPPASGAATPARAHASAAPPPPRAGPGREEPPRRQQIIHSGHFMVSSPHREHPPKKGYDFDTVNKQTCQTYSFGKTSSCHLSIDASLTKLFECMTLAYSGKLVSPKWKNFKGLKLQWRDKIRLNNAIWRAWYMQYLEKRKNPVCHFVTPLDGSVDVDEHRRPEAITTEGKYWKSRIEIVIREYHKWRTYFKKRLQQHKDEDLSSLVQDDDMLYWHKHGDGWKTPVPMEEDPLLDTDMLMSEFSDTLFSTLSSHQPVAWPNPREIAHLGNADMIQPGLIPLQPNLDFMDTFEPFQDLFSSSRSIFGSMLPASASAPVPDPNNPPAQESILPTTALPTVSLPDSLIAPPTAPSLAHMDEQGCEHTSRTEDPFIQPTDFGPSEPPLSVPQPFLPVFTMPLLSPSPAPPPISPVLPLVPPPATALNPPAPPTFHQPQKFAGVNKAPSVITHTASATLTHDAPATTFSQSQGLVITTHHPAPSAAPCGLALSPVTRPPQPRLTFVHPKPVSLTGGRPKQPHKIVPAPKPEPVSLVLKNARIAPAAFSGQPQAVIMTSGPLKREGMLASTVSQSNVVIAPAAIARAPGVPEFHSSILVTDLGHGTSSPPAPVSRLFPSTAQDPLGKGEQVPLHGGSPQVTVTGPSRDCPNSGQASPCASEQSPSPQSPQNNCSGKSDPKNVAALKNRQMKHISAEQKRRFNIKMCFDMLNSLISNNSKLTSHAITLQKTVEYITKLQQERGQMQEEARRLREEIEELNATIISCQQLLPATGVPVTRRQFDHMKDMFDEYVKTRTLQNWKFWIFSIIIKPLFESFKGMVSTSSLEELHRTALSWLDQHCSLPILRPMVLSTLRQLSTSTSILTDPAQLPEQASKAVTRIGKRLGES
B8: MTDH (protein, UniProt Q86UE4 1-582, looked up)
Protein LYRIC: MAARSWQDELAQQAEEGSARLREMLSVGLGFLRTELGLDLGLEPKRYPGWVILVGTGALGLLLLFLLGYGWAAACAGARKKRRSPPRKREEAAAVPAAAPDDLALLKNLRSEEQKKKNRKKLSEKPKPNGRTVEVAEGEAVRTPQSVTAKQPPEIDKKNEKSKKNKKKSKSDAKAVQNSSRHDGKEVDEGAWETKISHREKRQQRKRDKVLTDSGSLDSTIPGIENTITVTTEQLTTASFPVGSKKNKGDSHLNVQVSNFKSGKGDSTLQVSSGLNENLTVNGGGWNEKSVKLSSQISAGEEKWNSVSPASAGKRKTEPSAWSQDTGDANTNGKDWGRSWSDRSIFSGIGSTAEPVSQSTTSDYQWDVSRNQPYIDDEWSGLNGLSSADPNSDWNAPAEEWGNWVDEERASLLKSQEPIPDDQKVSDDDKEKGEGALPTGKSKKKKKKKKKQGEDNSTAQDTEELEKEIREDLPVNTSKTRPKQEKAFSLKTISTSDPAEVLVKNSQPIKTLPPATSTEPSVILSKSDSDKSSSQVPPILQETDKSKSNTKQNSVPPSQTKSETSWESPKQIKKKKKARRET
B9: MUSCLIN (protein, UniProt P61366 28-133, looked up)
Osteocrin: VDVTTTEAFDSGVIDVQSTPTVREEKSATDLTAKLLLLDELVSLENDVIETKKKRSFSGFGSPLDRLSAGSVDHKGKQRKVVDHPKRRFGIPMDRIGRNRLSNSRG

Test system: HEK293FT cells transfected with TF library
Test: Screening of TF condensates based on fluorescent puncta
Type: cell-based
Conditions: Figure 1B numerical data; TF library screen, one value per transcriptional factor
Method in brief: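 Each TF construct was introduced into HEK293FT cells using PEI at 4.8 μg/ml; glucose deprivation versus normal medium lasted 12 h. Automated confocal-style imaging of tagged TF staining, 50 fields per well, gave the puncta data.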

| Molecule | Z score of condensed fraction |
| --- | --- |
| B1 | 0.991 |
| B2 | -1.02 |
| B3 | 0.7939 |
| B4 | -0.8808 |
| B5 | -0.9909 |
| B6 | 0.1411 |
| B7 | -0.5131 |
| B8 | 1.2714 |
| B9 | 0.265 |
